Substrate in the data set: O=C[C@H](O)COP(=O)(O)O
Kind of data set: Coupled alpha-glycerol-3-phosphate dehydrogenase assay following NADH decrease at 340 nm at 25°C in 100 mM triethanolamine/10 mM EDTA, pH 7.4, with 0.2 mM NADH and GAP varied from 0.3 to 3 mM, fitted to the Michaelis-Menten equation by non-linear regression. It is filed as biochemical. How it is done: Glyceraldehyde 3-phosphate (GAP), buffers, salts and all the other analytical grade reagents were acquired from Sigma–Aldrich; α-glycerol-3-phosphate dehydrogenase (α-GDH) was from Roche, crystallization screen kits were obtained from Hampton Research. Restriction enzymes, DNA polymerase and T4 DNA ligase were purchased from New England BioLabs and Invitrogene. Oligonucleotide synthesis and DNA sequencing was performed at the Unidad de Biología Molecular, Instituto de Fisiología Celular, UNAM. Protein concentration was determined by the bicinchoninic acid method or by absorbance at 280 nm for pure GlTIM (ε280 = 26600 M^-1cm^-1). The TIM activity was determined at 25°C by a coupled assay, following the decrease in absorbance at 340 nm. The standard reaction mixture contained 100 mM triethanolamine/10 mM EDTA, pH 7.4 (TE buffer), 1 mM GAP, 0.2 mM NADH, and 0.9 units of α-GDH (20 μg/mL); the reaction was initiated by addition of 5 ng/mL of WT, C222V or C222M GlTIM, 10 ng/mL of C222N, 20 ng/mL of C222D or C222F, and 200 ng/mL of C222K. Kinetic, binding and stability data were analyzed by non-linear regression calculations with Origin software.
Determination of Km and Vmax was performed by fitting initial velocity data at GAP concentrations ranging from 0.3 to 3 mM to the Michaelis-Menten equation (v = Vmax•S/Km+S) by non-linear regression calculations. The kcat was derived from Vmax by considering a molecular mass for the monomer of 27.7 kDa. The Ki for 2-phosphoglycolate (2-PG) was calculated by global fit of initial velocity curves (GAP from 0.3 to 3 mM) obtained at different fixed concentrations of the inhibitor. Prior to fitting collectively the data to the simple competitive inhibition equation (v = Vmax•S/Km(1+I/Ki)+S), individual data were plotted as double reciprocal plots to confirm competitive inhibition.

Our source for the Km, Vmax and kcat values is article PMC3718800, “Structural and Functional Perturbation of Giardia lamblia Triosephosphate Isomerase by Modification of a Non-Catalytic, Non-Conserved Region” (PLoS ONE, 2013).

B1: GlTIM (Giardia duodenalis) (protein)
chain: MPARRPFIGGNFKCNGSLDFIKSHVAAIAAHKIPDSVDVVIAPSAVHLSTAIAANTSKQLRIAAQNVYLEGNGAWTGETSVEMLQDMGLKHVIVGHSERRRIMGETDEQSAKKAKRALEKGMTVIFCVGETLDERKANRTMEVNIAQLEALGKELGESKMLWKEVVIAYEPVWSIGTGVVATPEQAEEVHVGLRKWFAEKVCAEGAQHIRIIYGGSANGSNCEKLGQCPNIDGFLVGGASLKPEFMTMIDILTKTRT
Turning to B1, the Km worked out at 620 ± 220 µM, the Vmax came out at 8050 µmol/min/mg and the kcat turned out to be 7330 s⁻¹.
